In paper doi:10.1101/2021.04.04.438383 (bioRxiv, 2021):

B1: recombinant Arc S67D, GST tag cleaved (natural protein)
chain: MELDHMTTGGLHAYPAPRGGPAAKPNVILQIGKCRAEMLEHVRRTHRHLLTEVSKQVERELKGLHRDVGKLENNLDGYVPTGDSQRWKKSIKACLCRCQETIANLERWVKREMHVWREVFYRLERWADRLESMGGKYPVGSEPARHTVSVGVGGPEPYCQEADGYDYTVSPYAITPPPAAGELPEQESVEAQQYQSWGPGEDGQPSPGVDTQIFEDPREFLSHLEEYLRQVGGSEEYWLSQIQNHMNGPAKKWWEFKQGSVKNWVEFKKEFLQYSEGTLSREAIQRELELPQKQGEPLDQFLWRKRDLYQTLYVDAEEEEIIQYVVGTLQPKLKRFLRHPLPKTLEQLIQRGMEVQDGLEQAAEPSGTPLPTEDETEALTPALTSESVASDRTQPE
B2: recombinant Arc T278D, GST tag cleaved (natural protein)
chain: MELDHMTTGGLHAYPAPRGGPAAKPNVILQIGKCRAEMLEHVRRTHRHLLTEVSKQVERELKGLHRSVGKLENNLDGYVPTGDSQRWKKSIKACLCRCQETIANLERWVKREMHVWREVFYRLERWADRLESMGGKYPVGSEPARHTVSVGVGGPEPYCQEADGYDYTVSPYAITPPPAAGELPEQESVEAQQYQSWGPGEDGQPSPGVDTQIFEDPREFLSHLEEYLRQVGGSEEYWLSQIQNHMNGPAKKWWEFKQGSVKNWVEFKKEFLQYSEGDLSREAIQRELELPQKQGEPLDQFLWRKRDLYQTLYVDAEEEEIIQYVVGTLQPKLKRFLRHPLPKTLEQLIQRGMEVQDGLEQAAEPSGTPLPTEDETEALTPALTSESVASDRTQPE

Target: the molecule itself
Experiment: dynamic light scattering

Protein | binding result
B1 | binds
B2 | binds
